*1 amine or outer side, *2 acyl side, *3 side chain or, on linkers, in order; H or OH if unused. Bridges are numbered along the chain shown (N, C = ends). Where no end group is shown, it is not given here. Side-chain parts run from the residue outwards. [ ]: non-standard residue; d: D form. The star is where a group is joined. C20 diacid = O=C(O)CCCCCCCCCCCCCCCCCCC(=O)*; C18 diacid = O=C(O)CCCCCCCCCCCCCCCCC(=O)*; γGlu = O=C(O)[C@H](CCC(=O)[*:2])N[*:1]; Hyp = O=C(O)[C@@H]1C[C@@H](O)CN1; AEEA = NCCOCCOCC(=O)O
T1: human amylin receptor (AMY3) on CHO-K1/Ga15/AMY3 cells (human, UniProt P30988 25-474; O60896 24-148)
T1 sequence (looked up) 1: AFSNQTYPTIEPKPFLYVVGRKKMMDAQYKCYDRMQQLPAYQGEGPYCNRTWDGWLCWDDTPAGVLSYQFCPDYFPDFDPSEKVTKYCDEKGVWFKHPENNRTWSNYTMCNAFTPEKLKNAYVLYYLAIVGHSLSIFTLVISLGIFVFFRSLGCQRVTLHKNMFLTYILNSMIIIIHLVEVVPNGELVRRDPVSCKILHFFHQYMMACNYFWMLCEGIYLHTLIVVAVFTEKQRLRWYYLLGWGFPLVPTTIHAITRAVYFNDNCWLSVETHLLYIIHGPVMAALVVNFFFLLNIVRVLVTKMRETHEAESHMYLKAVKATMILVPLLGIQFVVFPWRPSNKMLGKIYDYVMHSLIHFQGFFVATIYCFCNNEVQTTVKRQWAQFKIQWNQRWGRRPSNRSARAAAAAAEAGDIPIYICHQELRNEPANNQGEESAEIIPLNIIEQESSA
T1 sequence (looked up) 2: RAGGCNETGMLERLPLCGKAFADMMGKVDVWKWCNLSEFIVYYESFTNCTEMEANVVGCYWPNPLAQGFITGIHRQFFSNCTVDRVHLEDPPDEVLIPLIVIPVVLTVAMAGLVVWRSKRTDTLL


Target: T1, human amylin receptor (AMY3) on …
Test: cell-based or functional assay

EC50, CRE-luciferase assay [nM]	Binder
0.01	RCNTATCATQRLADFLRHSSNNLK([AEEA-AEEA-γGlu-C18 diacid])PILPPTNVGSNT[Hyp]-NH2 (disulfide 2-7 (inferred)) [PD109]
0.011	RCNTATCATQRLADFLRHSSNNLGK([γGlu-C18 diacid])ILPPTNVGSNT[Hyp]-NH2 (disulfide 2-7 (inferred)) [PD104]
0.03	RCNTATCATQRLADFLRHSSNK([AEEA-γGlu-C20 diacid])LGPILPPTNVGSNT[Hyp]-NH2 (disulfide 2-7 (inferred)) [PD112]
0.033	RCNTATCATQRLADFLRHSSNNLGK([AEEA-AEEA-γGlu-C20 diacid])ILPPTNVGSNT[Hyp]-NH2 (disulfide 2-7 (inferred)) [PD103]
0.067	RCNTATCATQRLAEFLRHSSNNLK([γGlu-C20 diacid])PILPPTNVGSNTP-NH2 (disulfide 2-7 (inferred)) [PD009]
0.017	RCNTATCATQRLADFLRHSSNK([AEEA-γGlu-C18 diacid])LGPILPPTNVGSNT[Hyp]-NH2 (disulfide 2-7 (inferred)) [PD113]
0.027	RCNTATCATQRLADFLRHSSNNLK([γGlu-C18 diacid])PILPPTNVGSNT[Hyp]-NH2 (disulfide 2-7 (inferred)) [PD107]
0.039	RCNTATCATQRLADFLRHSSNNK([AEEA-γGlu-C20 diacid])GPILPPTNVGSNT[Hyp]-NH2 (disulfide 2-7 (inferred)) [PD110]
0.028	RCNTATCATQRLADFLRHSSNNLK([AEEA-γGlu-C18 diacid])PILPPTNVGSNT[Hyp]-NH2 (disulfide 2-7 (inferred)) [PD108]
0.011	RCNTATCATQRLADFLRHSSK([AEEA-γGlu-C18 diacid])NLGPILPPTNVGSNT[Hyp]-NH2 (disulfide 2-7 (inferred)) [PD115]
0.033	RCNTATCATQRLADFLRHSK([AEEA-γGlu-C20 diacid])NNLGPILPPTNVGSNT[Hyp]-NH2 (disulfide 2-7 (inferred)) [PD116]
0.008	RCNTATCATQRLADFLRHSSNNK([AEEA-γGlu-C18 diacid])GPILPPTNVGSNT[Hyp]-NH2 (disulfide 2-7 (inferred)) [PD111]
0.029	RCNTATCATQRLADFLRHSSK([AEEA-γGlu-C20 diacid])NLGPILPPTNVGSNT[Hyp]-NH2 (disulfide 2-7 (inferred)) [PD114]
0.026	RCNTATCATQRLADFLRHSSNNLK([AEEA-γGlu-C20 diacid])PILPPTNVGSNT[Hyp]-NH2 (disulfide 2-7 (inferred)) [PD106]
0.033	RCNTATCATQRLADFLRHSSNNLGK([AEEA-AEEA-γGlu-C18 diacid])ILPPTNVGSNT[Hyp]-NH2 (disulfide 2-7 (inferred)) [PD105]
